Results as given in patent US20120052070A1 (Novartis, published 2012).

Biological target: T1, recombinant human DKK1 (human, UniProt O94907 32-266)
T1 sequence: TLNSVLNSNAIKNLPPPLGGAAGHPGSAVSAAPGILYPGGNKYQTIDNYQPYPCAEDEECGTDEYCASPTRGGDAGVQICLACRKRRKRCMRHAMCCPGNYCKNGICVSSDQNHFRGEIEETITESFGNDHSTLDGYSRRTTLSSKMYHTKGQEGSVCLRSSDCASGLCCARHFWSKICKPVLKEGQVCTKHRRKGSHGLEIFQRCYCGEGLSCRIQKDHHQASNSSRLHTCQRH
Assay: cell-based or functional assay

B1: anti-DKK1 FAb MOR04910 (Fab, V domains shown)
VH: QVQLVESGGGLVQPGGSLRLSCAASGFTFSSYWMSWVRQAPGKGLEWVSGISYSGSNTHYADSVKGRFTISRDNSKNTLYLQMNSLRAEDTAVYYCARMGIDLDYWGQGTLVTVSS
VL: DIALTQPASVSGSPGQSITISCTGTSSDVGGFNYVSWYQQHPGKAPKLMIHDGSNRPSGVSNRFSGSKSGNTASLTISGLQAEDEADYYCQSWDVSPITAVFGGGTKLTVLG
EC50, reactivation of DKK1 inhibited wnt signaling: < 1 nM

B2: anti-DKK1/4 antibody (antibody, V domains shown)
VH: B1 VH
VL: B1 VL
apparent EC50, TCF/LEF luciferase reporter (SuperTopflash, Kremen) with 10 ng/ml rhDKK1 and Wnt3a conditioned medium: 0.16 nM
